The values that follow are results of earlier work, collected in publication PMC2446434.

A word on the Kd: it is the constant that tells how readily two partners part at equilibrium.

This data set concerns the target CD200 (Mus musculus) (UniProt O54901). The experiment in a line: SPR. In general terms: Surface plasmon resonance follows binding to a sensor surface in real time, without labels.
Sequence of UniProt O54901 (O54901 31-232): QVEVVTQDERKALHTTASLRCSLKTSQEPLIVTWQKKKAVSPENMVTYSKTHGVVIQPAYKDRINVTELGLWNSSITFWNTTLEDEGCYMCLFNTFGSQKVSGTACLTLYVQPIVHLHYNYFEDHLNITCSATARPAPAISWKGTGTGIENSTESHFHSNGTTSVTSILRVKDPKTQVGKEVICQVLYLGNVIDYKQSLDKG

With CD200R (from UniProt Q9ES57), the Kd is 4 µM.
